US20250361317A1 (Janssen / Centocor, published 2025)

Key:
[1] = biological target: T1, EMR2W4, huEMR2 GAIN domain + GPS, D261-T540, with C-terminal Avi/6x His tag (human); assay: SPR protein binding (human), binding to EMR2W4
T1 construct: also called Human EMR2 GAIN domain protein
T1 chain: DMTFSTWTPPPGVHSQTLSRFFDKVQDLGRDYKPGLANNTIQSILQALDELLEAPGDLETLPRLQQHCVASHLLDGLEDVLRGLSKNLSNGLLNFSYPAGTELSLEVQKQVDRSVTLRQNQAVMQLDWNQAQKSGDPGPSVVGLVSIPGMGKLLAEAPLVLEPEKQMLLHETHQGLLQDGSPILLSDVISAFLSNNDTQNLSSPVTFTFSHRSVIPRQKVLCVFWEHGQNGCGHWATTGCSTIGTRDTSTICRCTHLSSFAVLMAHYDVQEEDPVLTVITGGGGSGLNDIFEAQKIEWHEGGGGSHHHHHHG

[2] = biological target: T1, EMR2W4, huEMR2 GAIN domain + GPS, …; assay: SPR, EMR2 arm, forced degradation study: Thermal
[3] = biological target: T2, human EMR2 (ADGRE2, CD312) on cells (human, UniProt Q9UHX3 24-823); assay: flow cytometry, OCI-AML2 cells, 1 hour at 37 °C; mean ± SEM
T2 construct: also called huEMR2 full length; Adhesion G protein-coupled receptor E2
T2 sequence: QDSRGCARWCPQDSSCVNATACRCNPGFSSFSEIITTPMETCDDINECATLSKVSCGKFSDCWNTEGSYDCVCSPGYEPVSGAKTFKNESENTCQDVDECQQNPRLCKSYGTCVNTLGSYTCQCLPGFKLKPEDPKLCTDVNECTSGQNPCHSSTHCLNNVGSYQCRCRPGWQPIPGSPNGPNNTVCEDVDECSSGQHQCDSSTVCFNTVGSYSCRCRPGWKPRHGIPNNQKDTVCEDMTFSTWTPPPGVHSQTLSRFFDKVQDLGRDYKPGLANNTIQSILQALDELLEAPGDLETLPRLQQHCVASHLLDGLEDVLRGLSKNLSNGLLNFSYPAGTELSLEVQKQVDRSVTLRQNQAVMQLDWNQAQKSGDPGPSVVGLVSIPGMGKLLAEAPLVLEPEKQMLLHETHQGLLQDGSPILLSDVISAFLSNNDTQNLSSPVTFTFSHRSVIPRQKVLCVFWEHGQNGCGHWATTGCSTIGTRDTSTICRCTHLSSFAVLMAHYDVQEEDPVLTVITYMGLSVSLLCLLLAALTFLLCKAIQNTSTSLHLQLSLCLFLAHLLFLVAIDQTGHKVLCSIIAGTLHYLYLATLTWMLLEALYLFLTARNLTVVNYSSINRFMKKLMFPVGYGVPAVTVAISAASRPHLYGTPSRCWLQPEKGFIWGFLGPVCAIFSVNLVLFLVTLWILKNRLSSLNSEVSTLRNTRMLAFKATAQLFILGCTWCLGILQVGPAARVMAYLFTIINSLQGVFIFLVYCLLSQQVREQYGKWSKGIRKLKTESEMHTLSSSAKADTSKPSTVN
Protocol: (§1) After secondary detection with AF647-labeled material, the MFI signal was analyzed to generate an EC50 value. Curves are representative of 3 independent experiments.

[4] = biological target: T3, FcRn (cyno) (cynomolgus monkey, UniProt Q8SPV9 24-297; Q8SPW0 21-119); assay: FcRn binding (cyno, pH 6)
T3 construct: also called neonatal Fc receptor, cynomolgus monkey
T3 sequence (Q8SPV9 24-297 limits assumed, chain 1 of 2): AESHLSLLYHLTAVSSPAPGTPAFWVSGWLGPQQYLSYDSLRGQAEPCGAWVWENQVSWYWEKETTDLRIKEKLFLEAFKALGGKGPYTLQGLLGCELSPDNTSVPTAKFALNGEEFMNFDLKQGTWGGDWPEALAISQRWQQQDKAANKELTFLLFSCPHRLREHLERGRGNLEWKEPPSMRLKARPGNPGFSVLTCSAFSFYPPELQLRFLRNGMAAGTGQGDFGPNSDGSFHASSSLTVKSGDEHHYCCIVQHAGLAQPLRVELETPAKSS
T3 sequence (Q8SPW0 21-119 limits assumed, chain 2 of 2): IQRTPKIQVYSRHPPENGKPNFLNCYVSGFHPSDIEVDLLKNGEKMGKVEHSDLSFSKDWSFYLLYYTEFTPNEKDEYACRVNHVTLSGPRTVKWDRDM

[5] = biological target: T2, human EMR2 (ADGRE2, CD312) on cells; assay: flow cytometry, MOLM-13 cells, 1 hour at 37 °C; mean ± SEM
Protocol: as §1

[6] = biological target: T4, FcRn (human) (human, UniProt P55899 24-297; P61769 21-119); assay: FcRn binding (human, pH 6)
T4 construct: also called neonatal Fc receptor
T4 sequence (P55899 24-297 limits assumed, chain 1 of 2): as the sequence (Q8SPV9 24-297 limits assumed, chain 1 of 2) above, with D39N, Q44E, S99G, G189S, N190S, M217L, T269S counted along it
T4 sequence (P61769 21-119 limits assumed, chain 2 of 2): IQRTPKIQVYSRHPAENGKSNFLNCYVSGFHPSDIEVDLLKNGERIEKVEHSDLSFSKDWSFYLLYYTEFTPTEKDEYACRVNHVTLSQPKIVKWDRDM

[7] = biological target: T2, human EMR2 (ADGRE2, CD312) on cells; assay: flow cytometry, OCI-AML5 cells, 1 hour at 37 °C; mean ± SEM
Protocol: as §1

[8] = biological target: T5, T-cell receptor with TRBV19 (Vβ17) beta chain on human T cells (human); assay: flow cytometry, percent TRBV19+ of live pan-T cells, Donor 5, 1 hour, 37 °C
T5 construct: whole, on cells; also called Vb17; TRBV19+ T cells
T5 sequence (A0A075B6N1 22-114): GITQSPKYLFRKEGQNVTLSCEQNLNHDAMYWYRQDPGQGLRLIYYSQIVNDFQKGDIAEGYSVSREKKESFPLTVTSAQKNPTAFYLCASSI

[9] = biological target: T5, T-cell receptor with TRBV19 (Vβ17) beta …; assay: flow cytometry, percent TRBV19+ of live pan-T cells, Donor 4, 1 hour, 37 °C
[10] = biological target: T2, human EMR2 (ADGRE2, CD312) on cells; assay: flow cytometry, median AF647 of live cells, OCI-AML5 WT cells, 1 hour at 37 C
[11] = biological target: T5, T-cell receptor with TRBV19 (Vβ17) beta …; assay: flow cytometry, percent TRBV19+ of live pan-T cells, Donor 3, 1 hour, 37 °C
[12] = biological target: T1, EMR2W4, huEMR2 GAIN domain + GPS, …; assay: SPR, EMR2 arm, forced degradation study: Release
[13] = biological target: T5, T-cell receptor with TRBV19 (Vβ17) beta …; assay: flow cytometry, percent TRBV19+ of live pan-T cells, Donor 1, 1 hour, 37 °C
[14] = biological target: T5, T-cell receptor with TRBV19 (Vβ17) beta …; assay: cell-based or functional assay
[15] = biological target: T2, human EMR2 (ADGRE2, CD312) on cells; assay: cell-based or functional assay
[16] = biological target: T1, EMR2W4, huEMR2 GAIN domain + GPS, …; assay: SPR, EMR2 arm, forced degradation study: pH 5.0

B1: EMVBB8 (EMR2 x TRBV19 bispecific antibody) (bispecific antibody, human IgG1, kappa, L234A L235A)
heavy 1: DIQMTQSPSSLSASVGDRVTITCRSSQSLVHSNRNTYLHWYQQKPGCAPKLLIYKVSNRFSGVPSRFSGSGSGTDFTLTISSLQPEDFATYYCSQSTHVPFTFGQGTKLEIKGGGSGGSGGCPPCGGSGGQVQLQESGPGLVKPSETLSLTCTVSGYSITSGYFWNWIRQFPGKGLEWMGYISYDGSNNYNPSLKSRITISRDTSKNQFSLKLSSVTAADTAVYYCASPSPGTGYAVDYWGCGTTVTVSSEPKSSDKTHTCPPCPAPEAAGGPSVFLFPPKPKDTLMISRTPEVTCVVVSVSHEDPEVKFNWYVDGVEVHNAKTKPREEQYNSTYRVVSVLTVLHQDWLNGKEYKCKVSNKALPAPIEKTISKAKGQPREPQVYTLPPSREEMTKNQVSLWCLVKGFYPSDIAVEWESNGQPENNYKTTPPVLDSDGSFFLYSKLTVDKSRWQQGNVFSCSVMHEALHNHYTQKSLSLSPGK
heavy 2: EVQLVESGGGLVQPGGSLRLSCTASGFTFSRYSMNWVRQAPGEGLEWVSYISSSSNTIYYADSVKGRFTISRDNAKNSLYLQMNSLRDEDTAVYYCARDQGTPFDYWGQGTLVTVSSASTKGPSVFPLAPSSKSTSGGTAALGCLVKDYFPEPVTVSWNSGALTSGVHTFPAVLQSSGLYSLSSVVTVPSSSLGTQTYICNVNHKPSNTKVDKKVEPKSCDKTHTCPPCPAPEAAGGPSVFLFPPKPKDTLMISRTPEVTCVVVSVSHEDPEVKFNWYVDGVEVHNAKTKPREEQYNSTYRVVSVLTVLHQDWLNGKEYKCKVSNKALPAPIEKTISKAKGQPREPQVYTLPPSREEMTKNQVSLSCAVKGFYPSDIAVEWESNGQPENNYKTTPPVLDSDGSFFLVSKLTVDKSRWQQGNVFSCSVMHEALHNRFTQKSLSLSPGK
light: EIVLTQSPSSVSASIGDRVTITCRASQDISSWLGWYQQKPGKAPKLLIYAAISLQSGVPSRFSGSESGTDFTLTISSLQPEDFATYYCHQANSFPLTFGGGTKVEIKRTVAAPSVFIFPPSDEQLKSGTASVVCLLNNFYPREAKVQWKVDNALQSGNSQESVTEQDSKDSTYSLSSTLTLSKADYEKHKVYACEVTHQGLSSPVTKSFNRGEC
notes: also called the bispecific antibody
- Kd [1]: 0.193 nM
- Kd [2]: 0.22 nM
- EC50 [3]: 55 nM
- Kd [4]: 454 nM
- EC50 [5]: 53 nM
- Kd [6]: 306 nM
- EC50 [7]: 27 nM
- EC50 [8]: 9.5 nM
- EC50 [9]: 10.6 nM
- EC50 [10]: 13.4 nM
- Max (MFI) [10]: 260000 MFI
- EC50 [11]: 6.2 nM
- Kd [12]: 0.19 nM
- EC50 [13]: 7.8 nM
- Pan-T-cell activation (CD25), EC50 (nM), 24 hours, PBMC + OCI-AML3 [14]: 0.02 nM
- Pan-T-cell activation (CD25), EC50 (nM), 48 hours, PBMC + OCI-AML3 [14]: 0.01 nM
- Pan-T-cell activation (CD25), EC50 (nM), 72 hours, PBMC + OCI-AML3 [14]: 0.01 nM
- Pan-T-cell activation (CD25), EC50 (nM), 96 hours, PBMC + OCI-AML3 [14]: 0.01 nM
- Pan-T-cell activation (CD25), EC50 (nM), 120 hours, PBMC + OCI-AML3 [14]: 0.01 nM
- Cytotoxicity, EC50 (nM), 24 hours, PBMC + OCI-AML3 [15]: 0.02 nM
- Cytotoxicity, EC50 (nM), 48 hours, PBMC + OCI-AML3 [15]: 0.01 nM
- Cytotoxicity, EC50 (nM), 72 hours, PBMC + OCI-AML3 [15]: 0.004 nM
- Cytotoxicity, EC50 (nM), 96 hours, PBMC + OCI-AML3 [15]: 0.003 nM
- Cytotoxicity, EC50 (nM), 120 hours, PBMC + OCI-AML3 [15]: 0.004 nM
- Kd [16]: 0.2 nM
